Source: the domain aggregation screens of Martell et al. (2025)

assay: soluble fraction after stress (log2 fold change); higher = more stays soluble; pooled small domains, quantitative proteomics; details: stress: pH 4
In short: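 Aggregation propensity here comes from the fold change in the soluble amount of each small protein domain after acid stress, measured in pooled custom libraries by high-throughput quantitative proteomics. The acid stress was pH 4. On the log2 scale, higher values mean more of the domain stayed soluble.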

Row | Sequence | soluble fraction (log2)
1 | HMGVPVTAPMPGKVLKVTVSVGAAVKNGDLVLVLEAMKMENEIFATANGVVKEIRSREGDTVNSGDVMMVI | -1.35
2 | HMSAEDYMEMIYRLSQENGFTRVNDLASALNVQPPSVTRMIQKLAELNLIKYEKYGVIMLQPYGIEVGRSL | -1.47
3 | HMVHSEDLQDHKYVSQLGEVFLKENPNYENIKKSWGDHMVVIKKFGRYPHRNKILNRKSTPEELEFLKG | -0.115
4 | HMIDELLDPTHRIMVRHPRVDYVSPGFLIGPDKDVILWGFTGGIIARLFDFLGWTRPWDQSHVQDLPPYML | -0.242
5 | HMSAQDLIVKTDATQVEARVLEISPEQIRYKRFSNPDGPTYVLPVDAVDYIRYANGETDSFR | -0.446
6 | HMVMATPHNTAKAGDIAKTVIMPGDPLRAKYIADNYLDNAVQFNVVRNIYGYTGVYRGTDISVMASGM | 0.0409
7 | HMIVDYPSFVGKTKQELEKWAKENNIIIRYRQLSVTASDKVKAQLPATTTYKRIMKGSSIEVELEL | -0.749
8 | HMSSIVLTARSGRAALAYRVKSIGVDLSKDQLDLVYKTFLGFADKKKEIIDTDIPQILKASGI | -0.265
9 | HMKDIIVDPQGQYNHPGVPTRIPSSDITMKGVGYPVLGIADNGQKQMMQPGQDYKFPGAKYVDEYPQM | 0.0501
10 | HMDTLESYVKRLEKLEGIADSFKGVSKAFALQAGREIRIMVESEKITDEEAVWLSKDIARRIENELEYPG | -0.468
11 | HMPRSREVHVEPGMVLEDVTTGFVGAVIRTEKSAGIYVIELEDRRGRRRSFPLGGGFWLDGRPIIALPPLP | 0.281
12 | HMENAEALLKKLSGVLSDYEYKMLMLYADGKTPRRIAQETGQSAKSVSNALFRARTKLKELYEDQ | -0.455
13 | HMIDTTKILPGQEFKNMQELSVALTGQKMPAGKGYVLQQEKFKLYFSWKKITGTHKLIIDEIYEEPKT | -0.573
14 | HMSSKAVLEKFEALFIDQMLQSMRKATVRSELFDSEGIKLYESLFDKEISEELAKSGGLGLTKDLEQQL | -1.35
15 | HMAEPAEDLLSLEGMDKGLAYQLASNGVVTREDLAELATDDLLEIREMDAEQAAALIMKAREHWFEAEQQ | -1.94
16 | HMPQEMIEILATPNGWLRVRQGPGTNYPEITKVNSGEEFPLLEEKDSWFKIRIEEGQEGWISSQYAQKEE | -0.0319
17 | HMKMTIEDLITQAKESNAAENYYEAFQLYSKAIDVLPNDPDLYSARGVVLFHLDRKEDSLIDMNKSVD | -0.879
18 | HMSQVHYAVLFKNASAAEATEIVTYARETLGVQDIKINANGDILVPEDKVEEMRVSMSIAGFPK | -0.349
19 | HMGGQYQVRPGETLNQIAARVRPSNMSLSETQKAIIQANPDIFKNGNPNLIFAGDILRIPTGNQI | -0.224
20 | HMLPYKGTVAVSLAVLHKAVGVGTADMLKAVGTLRQGTEVTVTGRNGPFAQLKNGLWMKESFLE | 0.193
21 | HMEDNLMIVVQVNGKKRSEIKVSIDASEDQIKQTALAEPNVQKFVEGHTIRKMILVPSKLLNIVV | ≥ 0.43
22 | HMPAEEVPLYKAVVVTTPPNRLRVRFSPAGDFKRWLQSGEEVDVYQELGDWRRIEPNGWSSAEWLQRVG | 0.00708
23 | HMNVWGLSERELEATRLLIEGFSSKEASARMGISPSTVRSLWGRARAKMGVDSIEDARELVA | -0.273
24 | HMGFALLIAIERTGNTTYFVKLTLIKKGSDSDVLKDSFSVSQGDLVGTATYDSVIANRIREKTAAMWQKAT | -0.73
25 | HMIEFYTMQDMFYFKLTGDNTSRERREALGKILGIGYGNATQMVSRLNNYGISKEEFSKAIEEIEKQLEA | -1.36
26 | HMSIAEMSGARKSAILLLALDEDSAAEIFKYLSAGEVQEISMEMAKLNQVSHDDMKAVLEAFHKETEEFV | -1.02
27 | HMLSPPWYEYHRKVQAMFGRDPEVHIKDLDDLGDGKFSYMILVYNKEKAEAIKAILPQKVEMGNVTIETAI | ≥ 0.43
28 | HMHGQGTYTSPDGTKYVGDWQDEKMHGQGTYTYPDGMKFVGEFKDNKPWNGTGYDKYGNVKATFSNGVGKS | 0.22

Row | Sequence | soluble fraction (log2)
29 | HMDTNKMLIVNSISNGMKRLQELQDPQLAEIQKTFSGLDEQKATSAQLAQINNIINNRIAEIEG | 0.191
30 | HMGGVEWLTHPIGPRDSLQVLARAGLEARPTSDGDYEIYGQERWPQRDQARLMGWLRRFGQWVWQALYDK | -0.386
31 | HMLEQISDINILSGYAKEVIAENPKTVSDYLSGKAAAFQALVGQVMKKTGGRGNPVIIQEILKRLIHKK | -0.182
32 | HMVKNYYEILEVDKKASPEVIEKAYKTLAKKYHPDLQEAENNGQYEEKMKEINEAYSVLSDEFKRRTYDEQ | 0.103
33 | HMKLTPKQQQIYDFISSFADEHGYPPSVREIAQAVNLKSPATVHFHLKGLREAGYISQAEGKTRAITI | -0.136
34 | HMQRYYDVLGLQKGVSPEELKKTYRELSKKYHPDAHHNSPLRDLAEAKFKEINEAYEKIKEFLDNNF | -0.597
35 | HMAKNDSGLNNHTFNTIRDALQKALTDGPQEAKKLTENLPFPADKIITVIRYLADHDEHFSLEDGIISLT | -0.0785
36 | HMAITYETKVISGVNLRSAPSTSASVYQLIPKGENIHVVQKVNDYWLKVQTKDGKTGYISASSKYTNYIG | 0.0502
37 | HMKETIIPELLQNELDKNSELNDKFNTFSPYKQREFIEYIITAKQEKTQISRLQKVILMILEGRGLNN | -0.491
38 | HMKMNFNEEEQKLLSEANVLVETNKTYTDDEVKGFSNKIVEHIMTFSKTDIPKVKSKFDPILFKI | -0.745
39 | HMTSQVTVHVVGAVEKPGVVTLDAPSRVQDALEAAGGALPEAELSGVNLARELFDGEQIVVPAQGEDV | 0.0598
40 | HMRLTTTPKTARGLTTMNRIIRAAEVEFGRKGYHYTGITDIAQRAKVASGTIYLYFTDKYSLYVHLLT | 0.17
41 | HMDNAILQELYDYYKEDPSLSQSELIISMLTRIQEAVGYVSKDVQEEVARLAGVNRGYVAAIIKNLPHL | -0.963
42 | HMSSDEDELESIIKRVFADNPIELERLQNGEDKLIKFFMGLVMRQTKGKYPPKIIIDLLNKS | -1.54
43 | HMEISTEVPLRGGTISEEALEALNRLPGVTASNIDGKSISVDVADNAELRVSDINQVLAVHSPDTRV | -0.707
44 | HMPDAIPLETIIKNVNVLAGFLINSKTFTEDDIVMAYNNIMKIKGDHTDEKTLTNDVYTLLTEMN | -1.22
45 | HMDGAPVTVIKNGEVDVATTMRVGLSASELMFKLRAAGVDEVQIVHRAVLEQNGQLTIIKYGEE | -1.2
46 | HMDEYTAVDSRLDLELAMKRLKPEEAEVLRLVFDYGLPQRAIAERLGVSQMSVSRMQRRAIGKLKRWLSDN | -0.678
47 | HMRKSAVSSTLTSIEGIGATRAKALLKHFKTVAAVSEADLKELEDAPGMTRPSALRVYEYFHGK | 0.0795
48 | HMSDDLLTGLDAYSRGDWTTATASFERVLTTADPNNRTEALYWLVMSETSAQNYQRALNYANTFL | -0.887
49 | HMEEYTVEFVKHKVKRKQTLYTISKLYNVSIDDIIKYNSQIEGFNLSRRMELNIPVKKTLIVKNE | -0.823
50 | HMDYVKTLGETINVRVAASTDADIYKLLPGGEILNRVGYNEEWTKVMVDGSTFYVYSEYVIQTEPPA | -1.25
51 | HMIYAEDFVGRQGTANTILRPSGRIEIEGEVYDAYTRGEYVEAGERVVVISQEGSTLKVRVV | -1.36
52 | HMESRDRVRQASAAGYRFMSTMAGHEPGFEEASRALFAGDQTAFEARITAWPVDVQTHLKKILAEAFTT | -0.939
53 | HMIDDNTIIQIGDSYSKSIRLLGEPIELKNRSLNQKSYFMAVYDFKGRRYRLFFENDVLFDILRD | -0.486
54 | HMIDHLPPQRAAVLAFLQRELVAGRSPSLAEIALAFGFASRNAAQKHVQALVADGLLEQATGRSRGLRLPG | -0.235
55 | HMPFNLKSLADRLSHVFPGLVKMRDDIGAIIVMDKIKVTEHGVTEGGGLAADRVRAVYNEFIKEY | 0.334
